The labels stand for the following.
B1: CD2-associated protein, residues 109 to 169; numbered along this chain, Q9Y5K6 (parent)
chain: KKRQCKVLFEYIPQNEDELELKVGDIIDINEEVEEGWWSGTLNNKLGLFPSNFVKELEVTD

± gives the uncertainty stated by the source.

From the Human Domainome abundance scans (Beltran et al. 2025) come the findings set out here.

The variants in this data set derive from B1. Kind of data set: abundance fitness (aPCA) (normalised: wild type 0, dead -1); higher = more abundant; growth selection in yeast, the domain comes from the species named. The settings on record: Homo sapiens.
With KKRQCKVLFEYIPQNEDELELKVGDIIDINNEVEEGWWSGTLNNKLGLFPSNFVKELEVTD, the abundance fitness is -0.016 ± 0.22.
On to KKRQCKVLFEYIPQNEDELELKVGDIIDINGEVEEGWWSGTLNNKLGLFPSNFVKELEVTD, for which the abundance fitness is -0.187 ± 0.16.
For KKRQCKVLFEYIPQNEDELELKVGDIIDINIEVEEGWWSGTLNNKLGLFPSNFVKELEVTD the value was -0.116 ± 0.44; for KKRQCKVLFEYIPQNEDELELKVGDIIDINWEVEEGWWSGTLNNKLGLFPSNFVKELEVTD, -0.755 ± 0.2.
In the case of KKRQCKVLFEYIPQNEDELELKVGDIIDINLEVEEGWWSGTLNNKLGLFPSNFVKELEVTD, the abundance fitness was -0.367 ± 0.12.
For the variant KKRQCKVLFEYIPQNEDELELKVGDIIDINREVEEGWWSGTLNNKLGLFPSNFVKELEVTD, the abundance fitness is 0.039 ± 0.099.
For KKRQCKVLFEYIPQNEDELELKVGDIIDINKEVEEGWWSGTLNNKLGLFPSNFVKELEVTD the value was 0.109 ± 0.12; for KKRQCKVLFEYIPQNEDELELKVGDIIDINAEVEEGWWSGTLNNKLGLFPSNFVKELEVTD, -0.052 ± 0.1.
With KKRQCKVLFEYIPQNEDELELKVGDIIDINDEVEEGWWSGTLNNKLGLFPSNFVKELEVTD the figure was 0.002 ± 0.23; with KKRQCKVLFEYIPQNEDELELKVGDIIDINQEVEEGWWSGTLNNKLGLFPSNFVKELEVTD, -0.23 ± 0.15.
With KKRQCKVLFEYIPQNEDELELKVGDIIDINPEVEEGWWSGTLNNKLGLFPSNFVKELEVTD the figure was -0.855 ± 0.46; with KKRQCKVLFEYIPQNEDELELKVGDIIDINMEVEEGWWSGTLNNKLGLFPSNFVKELEVTD, -0.26 ± 0.17.
For KKRQCKVLFEYIPQNEDELELKVGDIIDINYEVEEGWWSGTLNNKLGLFPSNFVKELEVTD, the abundance fitness is -0.122 ± 0.25.
In the case of KKRQCKVLFEYIPQNEDELELKVGDIIDINVEVEEGWWSGTLNNKLGLFPSNFVKELEVTD, the abundance fitness was -0.354 ± 0.1.
With KKRQCKVLFEYIPQNEDELELKVGDIIDINFEVEEGWWSGTLNNKLGLFPSNFVKELEVTD, the abundance fitness was -0.584 ± 0.49.
With KKRQCKVLFEYIPQNEDELELKVGDIIDINTEVEEGWWSGTLNNKLGLFPSNFVKELEVTD the figure was -0.087 ± 0.12; with KKRQCKVLFEYIPQNEDELELKVGDIIDINSEVEEGWWSGTLNNKLGLFPSNFVKELEVTD, -0.33 ± 0.13.
For the variant KKRQCKVLFEYIPQNEDELELKVGDIIDPNEEVEEGWWSGTLNNKLGLFPSNFVKELEVTD, the abundance fitness is -0.625 ± 0.21.
With KKRQCKVLFEYIPQNEDELELKVGDIIDWNEEVEEGWWSGTLNNKLGLFPSNFVKELEVTD the figure was -0.693 ± 0.2; with KKRQCKVLFEYIPQNEDELELKVGDIIDRNEEVEEGWWSGTLNNKLGLFPSNFVKELEVTD, -0.678 ± 0.22; with KKRQCKVLFEYIPQNEDELELKVGDIIDVNEEVEEGWWSGTLNNKLGLFPSNFVKELEVTD, 0.085 ± 0.35.
With KKRQCKVLFEYIPQNEDELELKVGDIIDANEEVEEGWWSGTLNNKLGLFPSNFVKELEVTD the figure was -0.833 ± 0.35.
With KKRQCKVLFEYIPQNEDELELKVGDIIDHNEEVEEGWWSGTLNNKLGLFPSNFVKELEVTD the figure was -0.482 ± 0.28; with KKRQCKVLFEYIPQNEDELELKVGDIIDLNEEVEEGWWSGTLNNKLGLFPSNFVKELEVTD, -0.219 ± 0.077.
Turning to KKRQCKVLFEYIPQNEDELELKVGDIIDQNEEVEEGWWSGTLNNKLGLFPSNFVKELEVTD, the abundance fitness was -0.823 ± 0.27.
As for KKRQCKVLFEYIPQNEDELELKVGDIIDCNEEVEEGWWSGTLNNKLGLFPSNFVKELEVTD, the abundance fitness was -0.57 ± 0.28.
With KKRQCKVLFEYIPQNEDELELKVGDIIDYNEEVEEGWWSGTLNNKLGLFPSNFVKELEVTD the figure was -0.886 ± 0.31; with KKRQCKVLFEYIPQNEDELELKVGDIIDNNEEVEEGWWSGTLNNKLGLFPSNFVKELEVTD, -0.431 ± 0.21.
Regarding KKRQCKVLFEYIPQNEDELELKVGDIIDSNEEVEEGWWSGTLNNKLGLFPSNFVKELEVTD, the abundance fitness was -0.737 ± 0.22.
In the case of KKRQCKVLFEYIPQNEDELELKVGDIIDENEEVEEGWWSGTLNNKLGLFPSNFVKELEVTD, the abundance fitness was -0.78 ± 0.36.
Consider KKRQCKVLFEYIPQNEDELELKVGDIIDGNEEVEEGWWSGTLNNKLGLFPSNFVKELEVTD, for which the abundance fitness is -0.31 ± 0.24.
With KKRQCKVLFEYIPQNEDELELKVGDIIDKNEEVEEGWWSGTLNNKLGLFPSNFVKELEVTD, the abundance fitness is -0.63 ± 0.26.
For KKRQCKVLFEYIPQNEDELELKVGDIIDMNEEVEEGWWSGTLNNKLGLFPSNFVKELEVTD the value was 0.038 ± 0.16; for KKRQCKVLFEYIPQNEDELELKVGDIIDTNEEVEEGWWSGTLNNKLGLFPSNFVKELEVTD, -0.543 ± 0.19; for KKRQCKVLFEYIPQNEDELELKVGDIIDFNEEVEEGWWSGTLNNKLGLFPSNFVKELEVTD, -0.274 ± 0.15.
As for KKRQCKVLFEYIPQNEDELELKVGDIITINEEVEEGWWSGTLNNKLGLFPSNFVKELEVTD, the abundance fitness was -0.209 ± 0.14.
With KKRQCKVLFEYIPQNEDELELKVGDIIGINEEVEEGWWSGTLNNKLGLFPSNFVKELEVTD the figure was -0.581 ± 0.13.
For the variant KKRQCKVLFEYIPQNEDELELKVGDIISINEEVEEGWWSGTLNNKLGLFPSNFVKELEVTD, the abundance fitness is -0.368 ± 0.1.
KKRQCKVLFEYIPQNEDELELKVGDIIYINEEVEEGWWSGTLNNKLGLFPSNFVKELEVTD: the abundance fitness was -0.271 ± 0.16.
On to KKRQCKVLFEYIPQNEDELELKVGDIIEINEEVEEGWWSGTLNNKLGLFPSNFVKELEVTD, for which the abundance fitness was found to be 0.131 ± 0.11.
As to KKRQCKVLFEYIPQNEDELELKVGDIILINEEVEEGWWSGTLNNKLGLFPSNFVKELEVTD, the abundance fitness is -0.4 ± 0.12.
As to KKRQCKVLFEYIPQNEDELELKVGDIIFINEEVEEGWWSGTLNNKLGLFPSNFVKELEVTD, the abundance fitness is -0.335 ± 0.19.
For the variant KKRQCKVLFEYIPQNEDELELKVGDIIVINEEVEEGWWSGTLNNKLGLFPSNFVKELEVTD, the abundance fitness was -0.314 ± 0.082.
